The results in this text go back to publication PMC4463592.

The test system of data set [1] is human enolase alpha (ENO1) (Homo sapiens). The experiment in a line: EMSA. Conditions: apparent Kd, one value given for all three isoforms; none (unmodified transcript); 20 mM Tris-HCl pH 7.5, 150 mM NaCl, 10 mM MgCl2, 5 mM DTT, 10% glycerol, 0.1 mg/mL BSA, 30 C 15 min; native 8% PAGE in 0.5x Tris-borate pH 8.3, 5% glycerol.
Data set [2] concerns human enolase beta (ENO3, muscle) (Homo sapiens). The experiment in a line: EMSA. Conditions: apparent Kd, one value given for all three isoforms; none (unmodified transcript); 20 mM Tris-HCl pH 7.5, 150 mM NaCl, 10 mM MgCl2, 5 mM DTT, 10% glycerol, 0.1 mg/mL BSA, 30 C 15 min; native 8% PAGE in 0.5x Tris-borate pH 8.3, 5% glycerol.
The subject of data set [3] is human enolase gamma (ENO2, neuronal) (Homo sapiens). Kind of data set: EMSA. Conditions: apparent Kd, one value given for all three isoforms; none (unmodified transcript); 20 mM Tris-HCl pH 7.5, 150 mM NaCl, 10 mM MgCl2, 5 mM DTT, 10% glycerol, 0.1 mg/mL BSA, 30 C 15 min; native 8% PAGE in 0.5x Tris-borate pH 8.3, 5% glycerol.
Data set [4] relates to preKARS2 (precursor of mitochondrial lysyl-tRNA synthetase) (Homo sapiens). Kind of data set: EMSA. Conditions: apparent Kd with human enolase gamma present; no ternary complex detected; none (unmodified transcript); 20 mM Tris-HCl pH 7.5, 150 mM NaCl, 10 mM MgCl2, 5 mM DTT, 10% glycerol, 0.1 mg/mL BSA, 30 C 15 min; native 8% PAGE in 0.5x Tris-borate pH 8.3, 5% glycerol.
For data set [5] the test system is unchanged. The experiment in a line: EMSA, Scatchard. Particulars: no enolase; 0.5 uM preKARS2 (Methods print 0.5 mM); none (unmodified transcript); 20 mM Tris-HCl pH 7.5, 150 mM NaCl, 10 mM MgCl2, 5 mM DTT, 10% glycerol, 0.1 mg/mL BSA, 30 C 15 min; native 8% PAGE in 0.5x Tris-borate pH 8.3, 5% glycerol.

As to “tRK1 (yeast tRNALys acceptor 1) T7 transcript”, the Kd in data set [1] is 2 µM; in data set [2] it was 2 µM; in data set [3], 2 µM; in data set [4] it was < 0.02 µM; in data set [5] it was 0.3 µM.
